Test results: article PMC8809517, “Cofactor-independent RNA editing by a synthetic S-type PPR protein”
Positions count from the first letter of the chain named.

T1: GFP-9S library array, motif 4 ND N98T;D124Q (synthetic construct, N98T;D124Q)
T1 chain: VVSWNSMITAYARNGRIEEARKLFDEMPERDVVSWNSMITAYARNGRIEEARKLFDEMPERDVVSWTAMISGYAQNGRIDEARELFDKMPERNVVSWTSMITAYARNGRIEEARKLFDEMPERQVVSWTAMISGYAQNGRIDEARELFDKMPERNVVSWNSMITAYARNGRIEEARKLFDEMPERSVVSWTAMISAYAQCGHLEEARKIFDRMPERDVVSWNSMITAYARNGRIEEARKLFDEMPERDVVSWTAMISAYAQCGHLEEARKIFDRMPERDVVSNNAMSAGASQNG

T2: GFP-9S library array, motif 4 ND N98M;D124Y (synthetic construct, N98M;D124Y)
T2 chain: T1 chain with T98M, Q124Y

T3: GFP-9S library array, motif 4 ND N98P;D124H (synthetic construct, N98P;D124H)
T3 chain: T1 chain with T98P, Q124H

T4: GFP-9S library array, motif 4 ND N98C;D124C (synthetic construct, N98C;D124C)
T4 chain: T1 chain with T98C, Q124C

T5: GFP-9S library array, motif 4 ND N98Q;D124P (synthetic construct, N98Q;D124P)
T5 chain: T1 chain with T98Q, Q124P

B1: Cy5-rpoA (ssRNA)
RNA: AUUACACGUGA
B2: IR-rpoA-A (ssRNA)
RNA: AUUAAACGUGA
B3: IR-rpoA-U (ssRNA)
RNA: AUUAUACGUGA
B4: Cy5-rpoA-G (ssRNA)
RNA: AUUAGACGUGA

What was measured:
Assay in all cases: high-throughput RNA pulldown from lysate on Ni-NTA beads; HRP: 50 mM Tris pH 8, 150 mM NaCl, 1 mM beta-mercaptoethanol, 50 ug/ml BSA, 3 ug/ml yeast RNA, 0.5% heparin; ITC and FP: Tris pH 8, 200 mM KCl, 5% glycerol; MST: 50 mM Tris pH 8, 200 mM NaCl, 1 mM DTT, BSA, heparin, 0.05% Tween 20
Conditions in all cases: tags: N-terminal His-eGFP
[1] = biological target: T1, GFP-9S library array, motif 4 ND …
[2] = biological target: T2, GFP-9S library array, motif 4 ND …
[3] = biological target: T3, GFP-9S library array, motif 4 ND …
[4] = biological target: T4, GFP-9S library array, motif 4 ND …
[5] = biological target: T5, GFP-9S library array, motif 4 ND …

Binder	Kd ([1]; label: 5' Cy5)	Kd ([2]; label: 5' Cy5)	Kd ([3]; label: 5' Cy5)	Kd ([4]; label: 5' Cy5)	Kd ([5]; label: 5' Cy5)	Kd ([1]; label: 5' IRDye 800CW)	Kd ([2]; label: 5' IRDye 800CW)	Kd ([3]; label: 5' IRDye 800CW)	Kd ([4]; label: 5' IRDye 800CW)	Kd ([5]; label: 5' IRDye 800CW)
B1	157 nM	216 nM	94.4 nM	264 nM	135 nM					
B2						107 nM	488 nM	332 nM	43.7 nM	259 nM
B3						194 nM	682 nM	143 nM	243 nM	219 nM
B4	128 nM	167 nM	143 nM	70.5 nM	138 nM					
